Bridge positions count the residues as written; N and C are the ends. Square brackets hold non-standard residues; d marks the D form. Ends that are not written are not given here. * marks the point of attachment. Acetyl(2-(4-imidazolyl)) = O=C(Cc1c[nH]cn1)*; Aib = CC(C)(N)C(=O)O
B1: triple agonist of SEQ ID NO: 84 (peptide)
peptide: {Acetyl(2-(4-imidazolyl))}-[Aib]EGTFTSDYSIAMDEIHQKDFVDWLLAEC
modifications: bridge 15-19; numbers in words are those of the source; also: ring between positions 16 and 20, type not given here
B2: triple agonist of SEQ ID NO: 86 (peptide)
peptide: {Acetyl(2-(4-imidazolyl))}-[Aib]QGTFTSDYSKYLDEKRQKEFVNWLLAQC
modifications: bridge 15-19; numbers in words are those of the source; also: ring between positions 16 and 20, type not given here
B3: triple agonist of SEQ ID NO: 81 (peptide)
peptide: {Acetyl(2-(4-imidazolyl))}-[Aib]QGTFTSDYSKYLDEKRQKEFVQWLLNTC
modifications: bridge 15-19; numbers in words are those of the source; also: ring between positions 16 and 20, type not given here

Target: human GCG receptor (human, UniProt P47871 26-477)
Sequence (P47871 26-477): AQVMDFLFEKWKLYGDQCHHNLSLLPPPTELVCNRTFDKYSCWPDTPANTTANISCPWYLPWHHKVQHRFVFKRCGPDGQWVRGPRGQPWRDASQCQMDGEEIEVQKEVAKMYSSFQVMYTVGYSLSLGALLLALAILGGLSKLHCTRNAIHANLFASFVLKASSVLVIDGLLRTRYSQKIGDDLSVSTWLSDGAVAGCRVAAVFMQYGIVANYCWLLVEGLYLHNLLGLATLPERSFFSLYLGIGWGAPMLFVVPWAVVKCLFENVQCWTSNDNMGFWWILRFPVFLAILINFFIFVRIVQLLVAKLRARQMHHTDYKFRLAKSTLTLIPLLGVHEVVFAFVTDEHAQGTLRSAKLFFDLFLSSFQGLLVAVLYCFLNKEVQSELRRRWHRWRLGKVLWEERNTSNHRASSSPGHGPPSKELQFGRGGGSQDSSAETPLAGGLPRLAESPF
Assay: cell-based or functional assay

Which “In vitro activity (%) compared with native peptide, vs Glucagon” value (“In vitro activity (%) … vs Glucagon” for short) does the source give for B1 here?
Its value is under 0.1%.

Y[Aib]QGTFTSDYSKCLDERAAKEFVQWLLDHHPSSGQPPPS (bridge 16-20) [triple agonist of SEQ ID NO: 69] was tested. Which “In vitro activity (%) … vs Glucagon” value did it give?
Its value is 9.6%.

With Y[Aib]QGTFTSDYSKYLDEKAAKDFVQWLLDHHPSSGQPPPSC (bridge 16-20; also: ring between positions 16 and 20, type not given here) [triple agonist of SEQ ID NO: 77] as the binder, how does the “In vitro activity (%) … vs Glucagon” value read?
The value was 12.2%.

Which “In vitro activity (%) … vs Glucagon” value does the source give for H[Aib]QGTFTSDYSKYLDEKRQKEFVQWLLDTKC (bridge 16-20; also: ring between positions 16 and 20, type not given here) [triple agonist of SEQ ID NO: 78] here?
Its value is 14%.

Which “In vitro activity (%) … vs Glucagon” value does the source give for H[Aib]QGTFTSDVSKYLDGQAAKEFVAWLLKGC [triple agonist of SEQ ID NO: 7] here?
The value was under 0.1%.

With Y[Aib]QGTFTSDYSKYLDECAAKEFVQWLLDHHPSSGQPPPS (bridge 16-20) [triple agonist of SEQ ID NO: 64] as the binder, how does the “In vitro activity (%) … vs Glucagon” value read?
The value was 60.1%.

With [Acetyl(2-(4-imidazolyl))][Aib]EGTFTSDYSIAMDEIHQKDFVNWLLAQC (bridge 16-20; not fully specified) [triple agonist of SEQ ID NO: 83] as the binder, how does the “In vitro activity (%) … vs Glucagon” value read?
Its value is 1.3%.

For {Acetyl(2-(4-imidazolyl))}-[Aib]QGTFTSDYSKYLDECRAKEFVQWLLDHHPSSGQPPPS (bridge 15-19) [triple agonist of SEQ ID NO: 73], which “In vitro activity (%) … vs Glucagon” value is on record?
Its value is 5.4%.

For B2, which “In vitro activity (%) … vs Glucagon” value is on record?
The value was 0.4%.

With {Acetyl(2-(4-imidazolyl))}-[Aib]QGTFTSDYSKCLDEKRAKEFVQWLLDHHPSSGQPPPS (bridge 15-19) [triple agonist of SEQ ID NO: 74] as the binder, how does the “In vitro activity (%) … vs Glucagon” value read?
Its value is 0.9%.

Which “In vitro activity (%) … vs Glucagon” value does the source give for [Acetyl(2-(4-imidazolyl))][Aib]QGTFTSDCSKYLDERAAQDFVQWLLDGGPSSGAPPPS (not fully specified) [triple agonist of SEQ ID NO: 63] here?
The value was under 0.1%.

How did the “In vitro activity (%) … vs Glucagon” value turn out when Y[Aib]QGTFTSDYSKYLDEKRAKDFVQWLLDHHPSSGQPPPSC (bridge 16-20; also: ring between positions 16 and 20, type not given here) [triple agonist of SEQ ID NO: 76] was run?
The value was 47.6%.

Which “In vitro activity (%) … vs Glucagon” value does the source give for B3 here?
The value was 0.3%.

Target: human GLP-1 receptor (human, UniProt P43220 24-463)
Assay: cell-based or functional assay

How did the “In vitro activity (%) compared with native peptide, vs GLP-1” value (from here on “In vitro activity (%) … vs GLP-1”) turn out when B1 was run?
The value was 4.2%.

Y[Aib]QGTFTSDYSKCLDERAAKEFVQWLLDHHPSSGQPPPS (bridge 16-20) [triple agonist of SEQ ID NO: 69] was tested. Which “In vitro activity (%) … vs GLP-1” value did it give?
Its value is 24.3%.

For Y[Aib]QGTFTSDYSKYLDEKAAKDFVQWLLDHHPSSGQPPPSC (bridge 16-20; also: ring between positions 16 and 20, type not given here) [triple agonist of SEQ ID NO: 77], which “In vitro activity (%) … vs GLP-1” value is on record?
The value was 38.7%.

For H[Aib]QGTFTSDYSKYLDEKRQKEFVQWLLDTKC (bridge 16-20; also: ring between positions 16 and 20, type not given here) [triple agonist of SEQ ID NO: 78], which “In vitro activity (%) … vs GLP-1” value is on record?
Its value is 51%.

Which “In vitro activity (%) … vs GLP-1” value does the source give for H[Aib]QGTFTSDVSKYLDGQAAKEFVAWLLKGC [triple agonist of SEQ ID NO: 7] here?
Its value is 13.7%.

How did the “In vitro activity (%) … vs GLP-1” value turn out when Y[Aib]QGTFTSDYSKYLDECAAKEFVQWLLDHHPSSGQPPPS (bridge 16-20) [triple agonist of SEQ ID NO: 64] was run?
The value was 64.6%.

For [Acetyl(2-(4-imidazolyl))][Aib]EGTFTSDYSIAMDEIHQKDFVNWLLAQC (bridge 16-20; not fully specified) [triple agonist of SEQ ID NO: 83], which “In vitro activity (%) … vs GLP-1” value is on record?
The value was 47.3%.

With {Acetyl(2-(4-imidazolyl))}-[Aib]QGTFTSDYSKYLDECRAKEFVQWLLDHHPSSGQPPPS (bridge 15-19) [triple agonist of SEQ ID NO: 73] as the binder, how does the “In vitro activity (%) … vs GLP-1” value read?
Its value is 22.6%.

How did the “In vitro activity (%) … vs GLP-1” value turn out when B2 was run?
Its value is 28.4%.

{Acetyl(2-(4-imidazolyl))}-[Aib]QGTFTSDYSKCLDEKRAKEFVQWLLDHHPSSGQPPPS (bridge 15-19) [triple agonist of SEQ ID NO: 74] was tested. Which “In vitro activity (%) … vs GLP-1” value did it give?
Its value is 12.9%.

Which “In vitro activity (%) … vs GLP-1” value does the source give for [Acetyl(2-(4-imidazolyl))][Aib]QGTFTSDCSKYLDERAAQDFVQWLLDGGPSSGAPPPS (not fully specified) [triple agonist of SEQ ID NO: 63] here?
Its value is 15.3%.

How did the “In vitro activity (%) … vs GLP-1” value turn out when Y[Aib]QGTFTSDYSKYLDEKRAKDFVQWLLDHHPSSGQPPPSC (bridge 16-20; also: ring between positions 16 and 20, type not given here) [triple agonist of SEQ ID NO: 76] was run?
Its value is 10.3%.

Which “In vitro activity (%) … vs GLP-1” value does the source give for B3 here?
The value was 7.8%.

Target: T1, human GIP receptor (human, UniProt P48546 22-466)
T1 sequence (looked up): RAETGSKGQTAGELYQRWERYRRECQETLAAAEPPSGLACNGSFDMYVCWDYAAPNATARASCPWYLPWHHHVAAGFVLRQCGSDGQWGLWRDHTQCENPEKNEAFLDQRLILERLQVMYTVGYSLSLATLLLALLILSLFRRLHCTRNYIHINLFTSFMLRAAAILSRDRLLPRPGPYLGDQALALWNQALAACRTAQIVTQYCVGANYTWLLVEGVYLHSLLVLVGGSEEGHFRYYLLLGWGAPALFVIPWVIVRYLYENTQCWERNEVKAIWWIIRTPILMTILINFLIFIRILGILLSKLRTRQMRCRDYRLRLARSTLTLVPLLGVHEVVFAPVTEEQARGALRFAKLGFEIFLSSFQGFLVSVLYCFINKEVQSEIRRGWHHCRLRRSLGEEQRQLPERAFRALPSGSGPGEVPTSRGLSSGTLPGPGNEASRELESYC
Assay: cell-based or functional assay

B1 was tested. Which “In vitro activity (%) compared with native peptide, vs GIP” value (shortened to “In vitro activity (%) … vs GIP”) did it give?
The value was under 0.1%.

For Y[Aib]QGTFTSDYSKCLDERAAKEFVQWLLDHHPSSGQPPPS (bridge 16-20) [triple agonist of SEQ ID NO: 69], which “In vitro activity (%) … vs GIP” value is on record?
Its value is 62.8%.

With Y[Aib]QGTFTSDYSKYLDEKAAKDFVQWLLDHHPSSGQPPPSC (bridge 16-20; also: ring between positions 16 and 20, type not given here) [triple agonist of SEQ ID NO: 77] as the binder, how does the “In vitro activity (%) … vs GIP” value read?
The value was 35.5%.

H[Aib]QGTFTSDYSKYLDEKRQKEFVQWLLDTKC (bridge 16-20; also: ring between positions 16 and 20, type not given here) [triple agonist of SEQ ID NO: 78] was tested. Which “In vitro activity (%) … vs GIP” value did it give?
The value was 0.12%.

H[Aib]QGTFTSDVSKYLDGQAAKEFVAWLLKGC [triple agonist of SEQ ID NO: 7] was tested. Which “In vitro activity (%) … vs GIP” value did it give?
The value was under 0.1%.

How did the “In vitro activity (%) … vs GIP” value turn out when Y[Aib]QGTFTSDYSKYLDECAAKEFVQWLLDHHPSSGQPPPS (bridge 16-20) [triple agonist of SEQ ID NO: 64] was run?
The value was 92.9%.

Which “In vitro activity (%) … vs GIP” value does the source give for [Acetyl(2-(4-imidazolyl))][Aib]EGTFTSDYSIAMDEIHQKDFVNWLLAQC (bridge 16-20; not fully specified) [triple agonist of SEQ ID NO: 83] here?
Its value is 0.4%.

For {Acetyl(2-(4-imidazolyl))}-[Aib]QGTFTSDYSKYLDECRAKEFVQWLLDHHPSSGQPPPS (bridge 15-19) [triple agonist of SEQ ID NO: 73], which “In vitro activity (%) … vs GIP” value is on record?
The value was 3%.

How did the “In vitro activity (%) … vs GIP” value turn out when B2 was run?
The value was 0.2%.

Which “In vitro activity (%) … vs GIP” value does the source give for {Acetyl(2-(4-imidazolyl))}-[Aib]QGTFTSDYSKCLDEKRAKEFVQWLLDHHPSSGQPPPS (bridge 15-19) [triple agonist of SEQ ID NO: 74] here?
Its value is 1%.

For [Acetyl(2-(4-imidazolyl))][Aib]QGTFTSDCSKYLDERAAQDFVQWLLDGGPSSGAPPPS (not fully specified) [triple agonist of SEQ ID NO: 63], which “In vitro activity (%) … vs GIP” value is on record?
The value was under 0.1%.

With Y[Aib]QGTFTSDYSKYLDEKRAKDFVQWLLDHHPSSGQPPPSC (bridge 16-20; also: ring between positions 16 and 20, type not given here) [triple agonist of SEQ ID NO: 76] as the binder, how does the “In vitro activity (%) … vs GIP” value read?
The value was 11.7%.

How did the “In vitro activity (%) … vs GIP” value turn out when B3 was run?
The value was under 0.1%.
